According to the supplement of paper PMC7125110:
This sample holds only a part of the variants without activity.

B1: glmS ribozyme (parent)
chain: AUAAAAGCGCCAGAACUACAGAAAUGUAGUUGACGAGGAGGAGGUUUAUCGAAUUUUCGGCGGAUGCCUCCAAA

What was measured:
Conditions in all cases: with glucosamine-6-phosphate
glucosamine-6-phosphate [1] = variants of: B1; assay: self-cleavage kobs at 40 uM GlcN6P; higher = faster cleavage; RNA array
Summary of the method: (§1)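 Using a hybridised Cy3 probe at 37 °C, barcoded ribozyme variants transcribed in situ by E. coli RNA polymerase on sequenced MiSeq chips were monitored across tiles imaged over ~14 h. The flow contained glucosamine-6-phosphate from 40 μM to 10 mM in HEPES/KCl/Mg(OAc)2 buffer. Signals were normalised to baseline and to non-cleaving reference variants before per-tile medians were fit to one- or two-exponential decays to yield kobs. Weighted Michaelis–Menten fits across concentrations gave kcat and KM.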

glucosamine-6-phosphate [2] = variants of: B1; assay: self-cleavage kobs at 160 uM GlcN6P; higher = faster cleavage; RNA array
Summary of the method: as §1

glucosamine-6-phosphate [3] = variants of: B1; assay: self-cleavage kobs at 640 uM GlcN6P; higher = faster cleavage; RNA array
Summary of the method: as §1

glucosamine-6-phosphate [4] = variants of: B1; assay: self-cleavage kobs at 2500 uM GlcN6P; higher = faster cleavage; RNA array
Summary of the method: as §1

glucosamine-6-phosphate [5] = variants of: B1; assay: self-cleavage kobs at 10000 uM GlcN6P; higher = faster cleavage; RNA array
Summary of the method: as §1

Row | Variant | self-cleavage kobs at 40 uM GlcN6P (glucosamine-6-phosphate [1]) [s⁻¹] | self-cleavage kobs at 160 uM GlcN6P (glucosamine-6-phosphate [2]) [s⁻¹] | self-cleavage kobs at 640 uM GlcN6P (glucosamine-6-phosphate [3]) [s⁻¹] | self-cleavage kobs at 2500 uM GlcN6P (glucosamine-6-phosphate [4]) [s⁻¹] | self-cleavage kobs at 10000 uM GlcN6P (glucosamine-6-phosphate [5]) [s⁻¹]
1 | AUAAAAGCGCCAGAACUACAGAAAUGUAGUUGACGAGGAGGAGGUUUAUCUAGUUUUCGGCGGAUGCCUCCAAA | < 1e-05 | < 1e-05 | < 1e-05 | < 1e-05 | –
2 | AUAAAAGCGCCAGAACUACAGAAAUGUAGUUGACGAGGAGGAGGUUUAUCCAAUUUUCGGCGGAUGCCCCCAAA | < 1e-05 | – | – | < 1e-05 | < 1e-05
3 | AUAAAAGCGCCAGAACUACAGAAAUGUAGUUGACGAGGAGGAGGUUUAUCUAAUUUUAGUCGGAUGCCUCCAAA | < 1e-05 | – | – | – | < 1e-05
4 | AUAAAAGCGCCAGAACUACAGAAAUGUAGUUGACGAGGAGGAGGUUUAUCUAAUUUUCGGCGGGUGCCUCCAAA | < 1e-05 | < 1e-05 | – | < 1e-05 | –
5 | AUAAAAGCGCCAGAACUACAGAAAUGUAGUUGACGAGGAGGAGGUUUAUCCAAUUUUCGGCGGAUUCCUCCAAA | < 1e-05 | – | < 1e-05 | < 1e-05 | < 1e-05
6 | AUAAAAGCGCCAGAACUACAGAAAUGUAGUUGACGAGGAGGAGGUUUAUCCAAUUUUCGGCGGAUCCCUCCAAA | < 1e-05 | < 1e-05 | < 1e-05 | – | –
7 | AUAAAAGCGCCAGAACUACAGAAAUGUAGUUGACGAGGAGGAGGUUUAUCCAAUUUUGGGCGGAUGCCUCCAAA | < 1e-05 | – | – | – | –
8 | AUAAAAGCGCCAGAACUACAGAAAUGUAGUUGACGAGGAGGAGGUUUAUCAAAUAUUGGGCGGAUGCCUCCAAA | < 1e-05 | – | – | – | < 1e-05
9 | AUAAAAGCGCCAGAACUACAGAAAUGUAGUUGACGAGGAGGAGGUUUAUCGCAUUUUCGGUGGAUGCCUCCAAA | < 1e-05 | – | < 1e-05 | < 1e-05 | < 1e-05
10 | AUAAAAGCGCCAGAACUACAGAAAUGUAGUUGACGAGGAGGAGGUUUAUCUAAUUUUCGUCGGAUGCCUCCAAA | < 1e-05 | < 1e-05 | < 1e-05 | < 1e-05 | < 1e-05
11 | AUAAAAGCGCCAGAACUACAGAAAUGUAGUUGACGAGGAGGAGGUUUAUCCAAUUUUCGGCGGAUGACUCCAAA | < 1e-05 | < 1e-05 | < 1e-05 | < 1e-05 | –
12 | AUAAAAGCGCCAGAACUACAGAAAUGUAGUUGACGAGGAGGAGGUUUAUCCAAUUUUCGGUGGAUGCCUCCAAA | < 1e-05 | – | – | – | –
13 | AUAAAAGCGCCAGAACUACAGAAAUGUAGUUGACGAGGAGGAGGUUUAUCCAAUUUUCGGCAGAUGCCUCCAAA | < 1e-05 | – | < 1e-05 | < 1e-05 | < 1e-05
14 | AUAAAAGCGCCAGAACUACAGAAAUGUAGUUGACGAGGAGGAGGUUUAUCCAAUUUUCGGCGGGUGCAUCCAAA | < 1e-05 | – | – | – | < 1e-05
15 | AUAAAAGCGCCAGAACUACAGAAAUGUAGUUGACGAGGAGGAGGUUUAUCGCAUUUUCGGCGGUUGCCUCCAAA | < 1e-05 | < 1e-05 | < 1e-05 | < 1e-05 | < 1e-05
16 | AUAAAAGCGCCAGAACUACAGAAAUGUAGUUGACGAGGAGGAGGUUUAUCAAAUUUACGGCGGAUGCCUCCAAA | < 1e-05 | – | – | – | < 1e-05
17 | AUAAAAGCGCCAGAACUACAGAAAUGUAGUUGACGAGGAGGAGGUUUAUCUAAUUUUCAGCGGAUGCCUCCAAA | < 1e-05 | – | – | – | < 1e-05
18 | AUAAAAGCGCCAGAACUACAGAAAUGUAGUUGACGAGGAGGAGGUUUAUCCAAUUUUCGGCGGAUGCCUACAAA | < 1e-05 | – | < 1e-05 | – | –
19 | AUAAAAGCGCCAGAACUACAGAAAUGUAGUUGACGAGGAGGAGGUUUAUCGCAUUUUCGCCGGAUGCCUCCAAA | < 1e-05 | < 1e-05 | < 1e-05 | < 1e-05 | < 1e-05
20 | AUAAAAGCGCCAGAACUACAGAAAUGUAGUUGACGAGGAGGAGGUUUAUCCAAUUUUCGGCGGAUGCCUCCAAA | < 1e-05 | < 1e-05 | < 1e-05 | < 1e-05 | < 1e-05
21 | AUAAAAGCGCCAGAACUACAGAAAUGUAGUUGACGAGGAGGAGGUUUAUCAAAUUUUAGGCGGAUGCCUCCAAA | < 1e-05 | – | < 1e-05 | – | < 1e-05
22 | AUAAAAGCGCCAGAACUACAGAAAUGUAGUUGACGAGGAGGAGGUUUAUCAAAUGUUCGGCGGAUGCCUCCAAA | < 1e-05 | < 1e-05 | < 1e-05 | – | –
23 | AUAAAAGCGCCAGAACUACAGAAAUGUAGUUGACGAGGAGGAGGUUUAUCUAGUUUUCGGCGGGGGCCUCCAAA | < 1e-05 | – | – | – | < 1e-05
24 | AUAAAAGCGCCAGAACUACAGAAAUGUAGUUGACGAGGAGGAGGUUUAUCGCUUUUUCAGCGGCUGCCUCCAAA | < 1e-05 | – | < 1e-05 | – | –
25 | AUAAAAGCGCCAGAACUACAGAAAUGUAGUUGACGAGGAGGAGGUUUAUCCAUUUUCCUGCGGAUGCCUCCAAA | < 1e-05 | – | – | – | –
26 | AUAAAAGCGCCAGAACUACAGAAAUGUAGUUGACGAGGAGGAGGUUUAUCCAAUUUUUGGCGGAUGCAUCCAAA | < 1e-05 | – | – | – | –
